Read-outs that look alike come from different tables or passages of the source.
B1: 20D7-CPI (antibody, V domains shown)
VH: EVQLVESGGGLVQPGGSLRLSCAASGYSITDFLMYWVRQAPGKGLEWVAWIDPEDGETKYAQKFQSKARFTISRDNAKNSLYLQMNSLRAEDTAVYYCARWGYITDYFYGGFTYWGRGTLVTVSS
VL: DIQMTQSPPVLSASVGDRVTLSCKASQNINKNLDWYQQKHGEAPKLLIYHTNTLQMGIPSRFSGSGSGTDYALTITSLQPEDVATYYCYQYNSGPTFGAGTKLELRR
modifications: CPI agent through an AcLysValCitPABC linker, DAR ~2; site not stated for this antibody
B2: 3D1-CPI (antibody, V domains shown)
VH: EVQLQQSGPELVKPGASVKMSCKASGYTFSDYFMKWVKQSHGKRLEWIGDINPNNGETFYNHHFKGKATLTIDKSSSTAYMQLNSLTSDDSAVYYCARPRRGNAMDFWGQGTSVTVSS
VL: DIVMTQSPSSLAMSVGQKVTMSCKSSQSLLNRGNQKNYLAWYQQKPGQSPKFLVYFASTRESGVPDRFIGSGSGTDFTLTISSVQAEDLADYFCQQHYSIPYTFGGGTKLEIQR
modifications: CPI agent through an AcLysValCitPABC linker, DAR ~2; site not stated for this antibody
B3: h18G3-AcLysValCitPABC-DMAE-CO_CPI-000638314 (antibody, IgG1, V domains shown)
VH: EVQLVESGGGLVQPGGSLRLSCAASGFSLTSGDISWVRQAPGKGLEWVAVIWSGGGTNYGSRLMSRFTISRDNAKNSLYLQMNSLRAEDTAVYYCARDWGNFYFDYWGQGTLVTVSS
VL: DIQMTQSPSSLSASVGDRVTITCKSSQSLLSSGTRKNYLAWYQQKPGKAPKLLIYWASTRQSGVPSRFSGSGSGTDFTLTISSLQPEDFATYYCSQSYNLYTFGQGTKLEIKR
modifications: AcLysValCitPABC-DMAE-CO_CPI linker-agent conjugated site-specifically at Q296 (LLQG tag), DAR ~2
B4: 18G3 conjugated to iPr-calicheamicin (antibody, V domains shown)
VH: B3 VH
VL: B3 VL
modifications: iPr-calicheamicin conjugated; linker and site not stated
B5: 18G3 conjugated to CTI (glucuronide) (antibody, V domains shown)
VH: B3 VH
VL: B3 VL
modifications: CTI (glucuronide) agent conjugated; linker and site not stated
B6: 16D6-CPI (antibody, V domains shown)
VH: QVQLKESGPGLVAPSQSLSITCTVSGFSLTNFDISWIRQPPGKGLEWLGVMWTGGGTNYNSAFMSRLSISRDISKSQVSLKMSSLQTDDTAIYYCVRGDTYFFAMDYWGQGTSVTVSS
VL: DIVMSQSPSSLAVSAGEKVTMSCKSSQSLLSSGTRKNFLSWYQQKTGQSPKLLIYWASTRGSGVPDRFTGSGSGTDFTLTISSVQTEDLAVYYCKQSYNLYTFGGGTKLEIKR
modifications: CPI agent through an AcLysValCitPABC linker, DAR ~2; site not stated for this antibody

Columns and labels:
Assay in all cases: cell-based or functional assay
[1] = target: T1, CD123 (alpha chain of the interleukin-3 receptor) (human, UniProt P26951 19-378)
T1 sequence (P26951 19-378): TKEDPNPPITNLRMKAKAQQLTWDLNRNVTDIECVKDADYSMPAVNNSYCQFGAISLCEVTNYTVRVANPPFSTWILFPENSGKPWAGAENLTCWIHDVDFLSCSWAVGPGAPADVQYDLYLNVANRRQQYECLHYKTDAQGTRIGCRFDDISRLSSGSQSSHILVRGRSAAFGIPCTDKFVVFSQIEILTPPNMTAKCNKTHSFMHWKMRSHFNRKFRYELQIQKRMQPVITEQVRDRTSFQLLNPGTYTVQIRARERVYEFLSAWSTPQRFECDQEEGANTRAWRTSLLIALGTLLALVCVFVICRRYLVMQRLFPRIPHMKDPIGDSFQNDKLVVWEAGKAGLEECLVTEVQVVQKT

[2] = target: T1, CD123 (alpha chain of the interleukin-3 …); remark: listed apart in the source
[3] = target: T1, CD123 (alpha chain of the interleukin-3 …); remark: listed apart in the source
[4] = target: T1, CD123 (alpha chain of the interleukin-3 …); remark: listed apart in the source

Binder | IC50 (ng/mL), 2D in vitro cytotoxicity (CelltiterGlo, 96 hours), MOLM13 cells (CD123 +++) [1] | IC50 (ng/mL), 2D in vitro cytotoxicity (CelltiterGlo, 96 hours), JVM3 cells (CD123 ++) [1] | IC50 (ng/mL), 2D in vitro cytotoxicity (CelltiterGlo, 96 hours), MV411 cells (CD123 +++) [1] | IC50 (ng/mL), cytotoxicity in MOLM13 cells, IL-3 at 0 ng/ml [2] | IC50 (ng/mL), cytotoxicity in MOLM13 cells, IL-3 at 0.3 ng/ml [2] | IC50 (ng/mL), cytotoxicity in MOLM13 cells, IL-3 at 1 ng/ml [2] | IC50 (ng/mL), cytotoxicity in MV4-11 cells, IL-3 at 0 ng/ml [2] | IC50 (ng/mL), cytotoxicity in MV4-11 cells, IL-3 at 0.3 ng/ml [2] | IC50 (ng/mL), cytotoxicity in MV4-11 cells, IL-3 at 1 ng/ml [2] | also measured
B1 | 0.32 ng/mL | – | – | – | – | – | – | – | – | –
B2 | 0.33 ng/mL | – | – | – | – | – | – | – | – | –
B3 | 0.25 ng/mL | 0.69 ng/mL | 0.41 ng/mL | 0.14 ng/mL | 0.12 ng/mL | 0.14 ng/mL | 1.07 ng/mL | 1.05 ng/mL | 0.21 ng/mL | IC50 (ng/mL), 2D in vitro cytotoxicity (CelltiterGlo, 96 hours), Granta519 cells (CD123 ++) [1]: 0.38 ng/mL; IC50 (ng/mL), 2D in vitro cytotoxicity (CelltiterGlo, 96 hours), NB4 cells (CD123 +) [1]: 63.9 ng/mL; IC50 (ng/mL), 2D in vitro cytotoxicity (CelltiterGlo, 96 hours), OCI-AML3 cells (CD123 +) [1]: 2.65 ng/mL
B4 | – | – | – | – | – | – | – | – | – | IC50 (ng/mL), in vitro cytotoxicity, MOLM13 cells (CD123 +++) [3]: 0.0508 ng/mL; IC50 (ng/mL), in vitro cytotoxicity, MV4-11 cells (CD123 +++) [3]: 0.125 ng/mL
B5 | – | – | – | – | – | – | – | – | – | IC50 (ng/mL), in vitro cytotoxicity, Granta519 cells (CD123 ++) [4]: 0.26 ng/mL; IC50 (ng/mL), in vitro cytotoxicity, JVM3 cells (CD123 ++) [4]: 1.3 ng/mL; IC50 (ng/mL), in vitro cytotoxicity, MOLM13 cells (CD123 +++) [4]: 0.33 ng/mL; IC50 (ng/mL), in vitro cytotoxicity, MV411 cells (CD123 +++) [4]: 0.51 ng/mL; IC50 (ng/mL), in vitro cytotoxicity, NB4 cells (CD123 +) [4]: 38.6 ng/mL; IC50 (ng/mL), in vitro cytotoxicity, OCI-AML3 cells (CD123 +) [4]: 2.58 ng/mL
B6 | 0.22 ng/mL | 0.59 ng/mL | 0.4 ng/mL | 0.23 ng/mL | 0.23 ng/mL | 0.19 ng/mL | 1.25 ng/mL | 1.13 ng/mL | 1.13 ng/mL | –
